Data from US20220017863.

How the values were obtained:
[1] = molecular target: T1, aconitase 2 (ACO2), Q99KI0
T1 chain: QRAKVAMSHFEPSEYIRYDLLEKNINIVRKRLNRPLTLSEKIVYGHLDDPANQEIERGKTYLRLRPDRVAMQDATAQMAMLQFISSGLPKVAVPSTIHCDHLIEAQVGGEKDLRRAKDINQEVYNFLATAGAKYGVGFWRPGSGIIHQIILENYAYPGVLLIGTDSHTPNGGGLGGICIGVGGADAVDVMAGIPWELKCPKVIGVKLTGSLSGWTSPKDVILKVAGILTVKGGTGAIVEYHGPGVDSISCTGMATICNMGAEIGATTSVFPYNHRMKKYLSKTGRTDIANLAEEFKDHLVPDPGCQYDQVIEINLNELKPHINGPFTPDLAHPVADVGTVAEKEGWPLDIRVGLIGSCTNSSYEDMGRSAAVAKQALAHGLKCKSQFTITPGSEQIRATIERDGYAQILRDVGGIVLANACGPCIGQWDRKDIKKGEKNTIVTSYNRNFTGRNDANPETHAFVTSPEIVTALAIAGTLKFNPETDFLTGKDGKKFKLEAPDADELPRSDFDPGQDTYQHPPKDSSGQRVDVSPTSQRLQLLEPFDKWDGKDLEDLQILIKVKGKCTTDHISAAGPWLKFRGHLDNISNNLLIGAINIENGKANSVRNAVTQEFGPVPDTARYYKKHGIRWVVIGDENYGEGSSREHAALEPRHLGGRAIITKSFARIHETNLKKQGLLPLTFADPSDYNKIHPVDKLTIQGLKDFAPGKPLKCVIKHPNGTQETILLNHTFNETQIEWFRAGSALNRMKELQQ

[2] = molecular target: T2, phosphoglycerate kinase 1 (PGK1), P09411
T2 chain: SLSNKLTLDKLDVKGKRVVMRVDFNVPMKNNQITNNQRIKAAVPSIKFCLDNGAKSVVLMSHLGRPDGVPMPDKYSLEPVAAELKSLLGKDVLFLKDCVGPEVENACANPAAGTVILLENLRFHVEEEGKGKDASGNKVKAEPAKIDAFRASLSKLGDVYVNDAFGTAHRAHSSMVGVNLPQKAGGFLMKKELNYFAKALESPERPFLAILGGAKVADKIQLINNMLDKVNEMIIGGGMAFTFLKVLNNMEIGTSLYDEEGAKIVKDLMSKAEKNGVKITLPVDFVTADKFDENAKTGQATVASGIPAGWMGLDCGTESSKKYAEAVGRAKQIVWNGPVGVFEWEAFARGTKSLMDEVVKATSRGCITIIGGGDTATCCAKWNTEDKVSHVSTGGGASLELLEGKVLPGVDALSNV

[3] = molecular target: T3, malate dehydrogenase, P08249
T3 chain: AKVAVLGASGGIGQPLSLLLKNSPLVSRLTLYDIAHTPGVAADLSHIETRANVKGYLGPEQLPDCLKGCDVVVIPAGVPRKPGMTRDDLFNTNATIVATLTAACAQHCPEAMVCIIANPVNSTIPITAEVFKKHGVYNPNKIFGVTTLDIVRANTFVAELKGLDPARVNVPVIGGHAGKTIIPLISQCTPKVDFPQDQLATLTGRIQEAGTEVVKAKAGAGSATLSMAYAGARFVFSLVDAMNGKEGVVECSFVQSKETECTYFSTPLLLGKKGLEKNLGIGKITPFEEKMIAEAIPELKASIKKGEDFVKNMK

[4] = molecular target: succinate-CoA ligase alpha subunit (SUCLG1), Q9WUM5
Sequence of succinate-CoA ligase alpha subunit (SUCLG1), Q9WUM5 (Q9WUM5 35-346): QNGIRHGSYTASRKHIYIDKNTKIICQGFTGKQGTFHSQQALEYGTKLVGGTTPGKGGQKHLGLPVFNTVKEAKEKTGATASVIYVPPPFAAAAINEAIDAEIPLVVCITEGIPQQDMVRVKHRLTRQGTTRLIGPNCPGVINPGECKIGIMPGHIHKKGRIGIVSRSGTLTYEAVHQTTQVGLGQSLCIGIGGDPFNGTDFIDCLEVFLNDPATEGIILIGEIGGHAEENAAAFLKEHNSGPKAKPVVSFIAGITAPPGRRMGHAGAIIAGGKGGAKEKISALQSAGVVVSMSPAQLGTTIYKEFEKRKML

[5] = molecular target: lactate dehydrogenase (LDH), P06151
[6] = molecular target: T4, aldolase A (ALDOA), P05064
T4 chain: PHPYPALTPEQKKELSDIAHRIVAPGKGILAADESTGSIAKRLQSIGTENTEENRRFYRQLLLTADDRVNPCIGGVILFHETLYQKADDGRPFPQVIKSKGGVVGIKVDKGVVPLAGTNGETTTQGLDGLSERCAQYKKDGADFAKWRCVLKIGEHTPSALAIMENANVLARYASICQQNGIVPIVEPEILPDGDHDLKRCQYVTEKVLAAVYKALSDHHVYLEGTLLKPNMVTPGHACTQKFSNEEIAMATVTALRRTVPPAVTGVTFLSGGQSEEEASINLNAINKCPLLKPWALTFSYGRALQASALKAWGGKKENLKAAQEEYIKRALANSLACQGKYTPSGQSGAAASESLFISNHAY

[7] = molecular target: glutamate dehydrogenase (GDH), P26443
Sequence of glutamate dehydrogenase (GDH), P26443 (P26443 54-558): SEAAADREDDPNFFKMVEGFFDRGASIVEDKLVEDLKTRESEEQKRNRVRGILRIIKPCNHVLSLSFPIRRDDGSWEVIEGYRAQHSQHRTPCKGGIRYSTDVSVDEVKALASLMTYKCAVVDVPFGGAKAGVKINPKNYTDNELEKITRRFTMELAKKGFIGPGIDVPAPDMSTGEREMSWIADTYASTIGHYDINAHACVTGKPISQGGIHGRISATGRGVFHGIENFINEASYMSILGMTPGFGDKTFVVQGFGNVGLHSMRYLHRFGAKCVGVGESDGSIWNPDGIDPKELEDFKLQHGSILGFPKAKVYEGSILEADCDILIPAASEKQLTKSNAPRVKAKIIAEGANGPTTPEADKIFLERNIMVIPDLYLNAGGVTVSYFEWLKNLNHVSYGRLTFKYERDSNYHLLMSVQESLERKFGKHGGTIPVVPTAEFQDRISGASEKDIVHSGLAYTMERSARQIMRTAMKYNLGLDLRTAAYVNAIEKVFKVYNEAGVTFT

[8] = molecular target: T5, glutaminase (GLS), D3Z7P3
T5 chain: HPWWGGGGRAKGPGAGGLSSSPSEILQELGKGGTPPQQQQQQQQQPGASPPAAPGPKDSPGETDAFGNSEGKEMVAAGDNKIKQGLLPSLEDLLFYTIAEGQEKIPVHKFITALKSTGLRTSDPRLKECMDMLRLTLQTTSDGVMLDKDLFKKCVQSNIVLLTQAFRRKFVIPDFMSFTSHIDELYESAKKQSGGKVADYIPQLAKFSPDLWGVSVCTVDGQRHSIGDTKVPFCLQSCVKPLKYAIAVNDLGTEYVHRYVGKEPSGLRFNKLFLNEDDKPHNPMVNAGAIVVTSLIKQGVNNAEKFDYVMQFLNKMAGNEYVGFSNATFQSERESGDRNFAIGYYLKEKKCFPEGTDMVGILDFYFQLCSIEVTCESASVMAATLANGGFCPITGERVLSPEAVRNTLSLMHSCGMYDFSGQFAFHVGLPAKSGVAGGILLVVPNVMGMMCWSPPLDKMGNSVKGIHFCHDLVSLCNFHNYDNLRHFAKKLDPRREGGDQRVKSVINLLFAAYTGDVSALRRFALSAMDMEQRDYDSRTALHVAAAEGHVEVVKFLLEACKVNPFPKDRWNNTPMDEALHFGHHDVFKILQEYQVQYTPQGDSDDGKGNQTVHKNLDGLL

[9] = molecular target: succinate dehydrogenase subunit alpha (SDHA), Q8K2B3
Sequence of succinate dehydrogenase subunit alpha (SDHA), Q8K2B3 (Q8K2B3 43-664): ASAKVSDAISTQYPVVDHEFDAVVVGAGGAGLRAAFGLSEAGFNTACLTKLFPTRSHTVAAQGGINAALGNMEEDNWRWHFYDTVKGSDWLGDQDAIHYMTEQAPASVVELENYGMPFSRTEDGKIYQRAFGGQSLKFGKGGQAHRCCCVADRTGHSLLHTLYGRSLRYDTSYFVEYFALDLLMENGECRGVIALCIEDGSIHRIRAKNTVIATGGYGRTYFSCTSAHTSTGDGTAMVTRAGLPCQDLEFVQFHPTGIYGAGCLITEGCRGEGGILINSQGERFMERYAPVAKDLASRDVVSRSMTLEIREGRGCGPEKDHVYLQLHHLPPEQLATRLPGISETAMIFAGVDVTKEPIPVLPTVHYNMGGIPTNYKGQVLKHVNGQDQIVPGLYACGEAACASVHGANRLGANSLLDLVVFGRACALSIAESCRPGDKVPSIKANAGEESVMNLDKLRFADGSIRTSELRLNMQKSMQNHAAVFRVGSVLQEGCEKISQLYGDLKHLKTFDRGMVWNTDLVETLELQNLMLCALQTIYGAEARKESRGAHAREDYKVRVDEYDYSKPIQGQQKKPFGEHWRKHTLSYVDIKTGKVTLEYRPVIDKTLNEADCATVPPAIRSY

[10] = molecular target: T6, Hydroxyacyl-CoA Dehydrogenase Trifunctional Multienzyme Complex Subunit Beta (HADHB), Q99JY0
T6 chain: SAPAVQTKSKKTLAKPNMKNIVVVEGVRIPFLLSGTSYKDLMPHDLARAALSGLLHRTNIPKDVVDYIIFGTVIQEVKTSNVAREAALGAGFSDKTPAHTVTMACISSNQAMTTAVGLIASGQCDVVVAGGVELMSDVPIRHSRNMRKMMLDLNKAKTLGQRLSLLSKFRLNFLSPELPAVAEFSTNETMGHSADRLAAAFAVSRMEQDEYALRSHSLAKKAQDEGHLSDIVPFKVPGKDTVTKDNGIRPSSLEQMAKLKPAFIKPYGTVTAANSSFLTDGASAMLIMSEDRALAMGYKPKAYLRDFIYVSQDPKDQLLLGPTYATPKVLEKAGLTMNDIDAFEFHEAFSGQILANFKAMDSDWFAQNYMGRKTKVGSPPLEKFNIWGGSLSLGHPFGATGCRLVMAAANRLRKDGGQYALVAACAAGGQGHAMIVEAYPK

[11] = molecular target: T7, enolase 1 (ENO1), P17182
T7 chain: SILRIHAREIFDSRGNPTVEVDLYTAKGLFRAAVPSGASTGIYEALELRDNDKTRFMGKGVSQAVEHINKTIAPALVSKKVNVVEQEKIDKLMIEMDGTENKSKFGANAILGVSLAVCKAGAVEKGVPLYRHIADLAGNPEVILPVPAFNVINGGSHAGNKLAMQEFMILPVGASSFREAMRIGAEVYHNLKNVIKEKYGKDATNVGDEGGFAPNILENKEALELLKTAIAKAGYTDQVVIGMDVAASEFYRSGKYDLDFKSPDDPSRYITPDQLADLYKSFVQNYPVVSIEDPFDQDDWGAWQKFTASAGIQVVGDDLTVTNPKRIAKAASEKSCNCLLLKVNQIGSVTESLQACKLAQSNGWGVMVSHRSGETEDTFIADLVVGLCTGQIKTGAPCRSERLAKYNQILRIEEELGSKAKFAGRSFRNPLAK

[12] = molecular target: glyceraldehyde-3-phosphate dehydrogenase (GAPDH), P16858
Sequence of glyceraldehyde-3-phosphate dehydrogenase (GAPDH), P16858 (P16858 whole entry): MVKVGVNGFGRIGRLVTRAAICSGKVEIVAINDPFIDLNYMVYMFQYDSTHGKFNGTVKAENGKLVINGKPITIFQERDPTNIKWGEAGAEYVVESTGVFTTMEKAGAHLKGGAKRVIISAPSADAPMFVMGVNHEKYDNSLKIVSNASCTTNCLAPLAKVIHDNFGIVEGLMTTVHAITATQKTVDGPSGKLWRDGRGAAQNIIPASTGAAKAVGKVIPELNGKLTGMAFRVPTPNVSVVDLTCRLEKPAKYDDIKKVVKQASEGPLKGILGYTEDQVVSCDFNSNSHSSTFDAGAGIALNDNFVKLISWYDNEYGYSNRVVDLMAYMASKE

[13] = molecular target: T8, isocitrate dehydrogenase, P54071
T8 chain: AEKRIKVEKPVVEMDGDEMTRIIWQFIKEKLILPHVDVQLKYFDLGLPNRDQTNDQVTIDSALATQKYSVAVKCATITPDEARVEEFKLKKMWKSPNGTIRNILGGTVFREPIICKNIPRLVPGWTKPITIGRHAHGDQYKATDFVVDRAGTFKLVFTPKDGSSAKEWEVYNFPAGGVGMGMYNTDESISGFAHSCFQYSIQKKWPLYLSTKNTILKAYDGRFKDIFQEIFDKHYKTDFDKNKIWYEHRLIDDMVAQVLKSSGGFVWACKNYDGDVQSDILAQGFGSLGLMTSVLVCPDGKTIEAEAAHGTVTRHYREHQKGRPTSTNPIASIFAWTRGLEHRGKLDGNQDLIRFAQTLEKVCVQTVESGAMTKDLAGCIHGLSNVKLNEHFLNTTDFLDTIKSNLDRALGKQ

[14] = molecular target: pyruvate kinase M (PKM), P52480
Sequence of pyruvate kinase M (PKM), P52480 (P52480 whole entry): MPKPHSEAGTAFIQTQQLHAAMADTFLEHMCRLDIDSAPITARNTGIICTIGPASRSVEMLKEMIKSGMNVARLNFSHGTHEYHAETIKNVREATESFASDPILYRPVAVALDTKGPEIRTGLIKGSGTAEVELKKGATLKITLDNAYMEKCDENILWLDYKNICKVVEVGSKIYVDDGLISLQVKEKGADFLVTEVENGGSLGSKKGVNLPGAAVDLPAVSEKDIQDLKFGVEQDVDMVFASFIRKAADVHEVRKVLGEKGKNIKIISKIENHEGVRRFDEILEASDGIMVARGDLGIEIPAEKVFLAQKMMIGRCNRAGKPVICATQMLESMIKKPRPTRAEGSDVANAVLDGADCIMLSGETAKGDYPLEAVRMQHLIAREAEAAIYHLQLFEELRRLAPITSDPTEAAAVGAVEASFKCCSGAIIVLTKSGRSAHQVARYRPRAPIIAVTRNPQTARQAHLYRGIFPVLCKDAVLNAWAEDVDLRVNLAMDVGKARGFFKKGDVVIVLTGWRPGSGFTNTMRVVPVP

B1: Sirt2 (protein)
chain: AEPDPSDPLETQAGKVQEAQDSDSDTEGGATGGEAEMDFLRNLFTQTLGLGSQKERLLDELTLEGVTRYMQSERCRKVICLVGAGISTSAGIPDFRSPSTGLYANLEKYHLPYPEAIFEISYFKKHPEPFFALAKELYPGQFKPTICHYFIRLLKEKGLLLRCYTQNIDTLERVAGLEPQDLVEAHGTFYTSHCVNTSCRKEYTMGWMKEKIFSEATPRCEQCQSVVKPDIVFFGENLPSRFFSCMQSDFSKVDLLIIMGTSLQVQPFASLISKAPLATPRLLINKEKTGQTDPFLGMMMGLGGGMDFDSKKAYRDVAWLGDCDQGCLALADLLGWKKELEDLVRREHANIDAQSGSQAPNPSTTISPGKSPPPAKEAARTKEKEEQQ
acetylated peptide intensity (acetyl-lysine IP, LC-MS/MS, EIC) [1]: peptide NFTGRNDANPETHAFVTSPEIVTALAIAGTLKFNPETDFLTGKDGK (SEQ ID NO:7) from aconitase 2 ... acetylation site K506 ... increased acetylation intensity in Sirt2^-/- sample versus WT | acetylated peptide intensity (acetyl-lysine IP, LC-MS/MS, EIC) [2]: peptide SVVLMSHLGRPDGVPMPDKYSLEPVAAELK (SEQ ID NO:4) from phosphoglycerate kinase 1 ... acetylation site K75 ... increased acetylation intensity in Sirt2^-/- sample versus WT | acetylated peptide intensity (acetyl-lysine IP, LC-MS/MS, EIC) [3]: peptide ETECTYFSTPLLLGKK (SEQ ID NO:11) from malate dehydrogenase ... acetylation site K296 ... increased acetylation intensity in Sirt2^-/- sample versus WT | acetylated peptide intensity (acetyl-lysine IP, LC-MS/MS, EIC) [4]: peptide SSDEAYAIAKK (SEQ ID NO:9) from Succinyl-CoA Ligase ... acetylation site K125 ... increased acetylation intensity in Sirt2^-/- sample versus WT | acetylated peptide intensity (acetyl-lysine IP, LC-MS/MS, EIC) [5]: peptide FIIPNIVKYSPHCK (SEQ ID NO:3) from lactate dehydrogenase ... acetylation site K126 ... increased acetylation intensity in Sirt2^-/- sample versus WT | acetylated peptide intensity (acetyl-lysine IP, LC-MS/MS, EIC) [6]: peptide GILAADESTGSIAKR (SEQ ID NO:1) from aldolase A ... acetylation site K42 ... increased acetylation intensity in Sirt2^-/- sample versus WT | acetylated peptide intensity (acetyl-lysine IP, LC-MS/MS, EIC) [7]: peptide LTFKYER (SEQ ID NO:14) from GDH ... acetylation site K457 ... increased acetylation intensity in Sirt2^-/- sample versus WT | acetylated peptide intensity (acetyl-lysine IP, LC-MS/MS, EIC) [8]: peptide FITALKSTG (SEQ ID NO:13) from GLS ... acetylation site K169 ... increased acetylation intensity in Sirt2^-/- sample versus WT | acetylated peptide intensity (acetyl-lysine IP, LC-MS/MS, EIC) [9]: peptide ISQLYGDLKHLK (SEQ ID NO:10) from Succinate Dehydrogenase Subunit Alpha ... acetylation site K544 ... increased acetylation intensity in Sirt2^-/- sample versus WT | acetylated peptide intensity (acetyl-lysine IP, LC-MS/MS, EIC) [10]: peptide GQQQVFKGLNDK (SEQ ID NO:12) from HADHB ... acetylation site K406 ... increased acetylation intensity in Sirt2^-/- sample versus WT | acetylated peptide intensity (acetyl-lysine IP, LC-MS/MS, EIC) [11]: peptide SCNCLLLKVNQIGSVTESLQACK (SEQ ID NO:2) from enolase 1 ... acetylation site K343 ... increased acetylation intensity in Sirt2^-/- sample versus WT | acetylated peptide intensity (acetyl-lysine IP, LC-MS/MS, EIC) [12]: peptide WGEAGAEYVVESTGVFTTMEKAGAHLK (SEQ ID NO:5) from glyceraldehyde-3-phosphate dehydrogenase ... acetylation site K105 ... increased acetylation intensity in Sirt2^-/- sample versus WT | acetylated peptide intensity (acetyl-lysine IP, LC-MS/MS, EIC) [13]: peptide NILGGTVFREPIICKNIPR (SEQ ID NO:8) from isocitrate dehydrogenase ... acetylation site K155 ... increased acetylation intensity in Sirt2^-/- sample versus WT | acetylated peptide intensity (acetyl-lysine IP, LC-MS/MS, EIC) [14]: peptide CCSGAIIVLTKSGR (SEQ ID NO:6) from pyruvate kinase M ... acetylation site K433 ... increased acetylation intensity in Sirt2^-/- sample versus WT
